Assay results from article PMC5700378.

Molecular target: PrP^Sc enriched from elk brain infected with chronic wasting disease (elk) (UniProt P67986)
Assay: SPR

UniProt P67986, sequence (P67986 25-233 limits assumed): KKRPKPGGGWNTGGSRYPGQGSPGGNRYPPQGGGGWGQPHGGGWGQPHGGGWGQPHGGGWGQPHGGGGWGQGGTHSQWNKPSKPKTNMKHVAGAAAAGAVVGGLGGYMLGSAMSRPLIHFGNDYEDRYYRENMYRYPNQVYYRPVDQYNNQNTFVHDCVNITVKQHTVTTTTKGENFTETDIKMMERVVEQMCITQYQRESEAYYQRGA

purified full-length CD21 (from UniProt P20023 21-1033) (receptor)
Kd: 16 nM
